Data taken from publication doi:10.1101/2020.12.17.423260.

Biological target: 3Dpol-WT (RNA-dependent RNA polymerase) (Foot-and-mouth disease virus, UniProt P03305 1863-2332)
Assay: fluorescence polarisation anisotropy

Sequence of 3Dpol-WT (RNA-dependent RNA polymerase) (P03305 1863-2332): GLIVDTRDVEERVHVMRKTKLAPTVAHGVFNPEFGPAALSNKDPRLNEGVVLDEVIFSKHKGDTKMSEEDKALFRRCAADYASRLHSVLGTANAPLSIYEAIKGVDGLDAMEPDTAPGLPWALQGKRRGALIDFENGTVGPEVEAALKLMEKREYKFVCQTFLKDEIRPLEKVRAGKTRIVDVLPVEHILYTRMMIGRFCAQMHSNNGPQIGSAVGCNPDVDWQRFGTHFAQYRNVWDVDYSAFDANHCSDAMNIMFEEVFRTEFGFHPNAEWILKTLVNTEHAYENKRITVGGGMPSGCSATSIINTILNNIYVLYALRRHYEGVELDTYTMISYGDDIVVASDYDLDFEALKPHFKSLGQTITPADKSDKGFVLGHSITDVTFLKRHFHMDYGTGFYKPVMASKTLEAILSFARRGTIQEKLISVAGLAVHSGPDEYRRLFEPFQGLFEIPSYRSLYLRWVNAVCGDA

With AAAAAAAAAAAAA (ssRNA) [13mer poly-A RNA] the Kd was 5.83 ± 1.3 µM.
